Assay results taken from patent WO2010047829A1.

Biological target: E1E2 (isolate H77), produced by transfected 293T cells (hepatitis C virus isolate H77 (genotype 1a)) (UniProt P27958)
Assay: cell-based or functional assay

| Substance | IC50 titer, neutralization of HCVpp-H77 [µg/mL] |
| --- | --- |
| MAb AR3A (antibody) | 0.4 |
| MAb AR3B (antibody) | 1 |
